These are literature values, as cited in paper PMC5576430.

Data set [1] deals with p300 CH1 (Homo sapiens) (UniProt Q09472).
For data set [2] the target is unchanged. Description: tryptophan fluorescence.
For a further data set, the target named is HIF-1α (Homo sapiens) (UniProt Q16665).

Like-named read-outs stand apart in the source and are kept apart here.

Sequence of UniProt Q09472 (Q09472 331-417): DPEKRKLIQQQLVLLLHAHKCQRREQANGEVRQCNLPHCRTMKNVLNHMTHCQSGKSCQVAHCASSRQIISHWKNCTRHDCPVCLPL

Broadly, the Kd is the concentration at which binding is half-saturated. Turning to HIF-1α C-TAD helix 2 peptide, the Kd with p300 CH1 (Homo sapiens) [1] was 825 nM. With “HIF-1α helix 3 unconstrained peptide helix 3 (from UniProt Q16665)”, the Kd with p300 CH1 (Homo sapiens) [2] was 6060 nM. For cyclo-CLLFVY, the Kd in the data set with HIF-1α (Homo sapiens) is 124 nM.
